For the data set the following is noted: Saccharomyces cerevisiae (strain ATCC 204508 / S288c), pH 5, CD, Sodium acetate buffer, reversible: yes.

This note sets out measurements from FireProtDB (doi:10.1021/bi962155i).

“And” between values parts separate entries of the source, which are not always exact repeats. Equal values may be shown once.

Sequence of Cytochrome c isoform 1 wild type, P00044 (P00044 whole entry, canonical isoform): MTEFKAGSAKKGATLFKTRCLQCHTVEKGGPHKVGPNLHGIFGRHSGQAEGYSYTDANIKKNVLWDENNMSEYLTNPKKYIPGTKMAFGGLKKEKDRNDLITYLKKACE

Turning to “Cytochrome c isoform 1 wild type, P00044”, under “5 °C, GdnHCl”, the denaturant m value was found to be 5.4 kcal/mol/M, the “denaturant midpoint (higher = more stable)” value turned out to be 1.4 M and the unfolding free energy turned out to be 7.8 kcal/mol. For the setting “Thermal”, the “unfolding enthalpy (calorimetric)” value is 91.8 kcal/mol and 42.8 kcal/mol.
